# Laboratory results as given in patent US20240350646A1, “METHODS AND COMPOSITIONS FOR DELIVERY TO AND ACROSS THE BLOOD BRAIN BARRIER” (NUtech Ventures, priority 2021, published 2024).
# Molecular target: T1, human claudin-3 (Homo sapiens, UniProt O15551)
# T1 sequence (O15551 1-220): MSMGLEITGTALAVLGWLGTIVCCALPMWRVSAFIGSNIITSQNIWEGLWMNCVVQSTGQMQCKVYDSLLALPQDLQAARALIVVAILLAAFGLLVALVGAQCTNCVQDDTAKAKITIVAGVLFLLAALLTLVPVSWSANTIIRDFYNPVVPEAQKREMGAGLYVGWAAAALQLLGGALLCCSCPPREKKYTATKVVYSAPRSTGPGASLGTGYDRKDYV
# Test: Microscale thermophoresis (MST) binding
# Settings: 0.1% beta-UDM buffer
# Method: Human claudin-1 was expressed and purified as reported previously (Vecchio & Stroud, 2019, PNAS USA, 116:17817-24). MST measurements were performed using a Monolith instrument (NanoTemper Technologies). For experiments with human claudin-1, the assay buffer contained 10 mM Tris HCl, pH 8.0, 100 mM NaCl, 4% glycerol, and 0.04% n-Dodecyl-β-D-Maltopyranoside (β-DDM). NPs and peptides were labeled with AF647 prior to MST analysis as described above. For the binding experiments, the concentration of human claudin-1 was varied from 2.2-73,500 nM and the AF647-labeled C1C2-NP was fixed at 70 nM, while the AF647 labeled NPs and AF647 labeled C1C2 peptide were fixed at 1 and 0.3 μM, respectively. Binding of the AF647 labeled C1C2-NP to human claudin-3, -4, and -9 were tested using 0.4-14000 nM, 0.8-28000 nM, and 0.6-20000 nM, respectively; with the AF647 labeled C1C2-NP fixed at 70 nM. This assay buffer was similar, except β-DDM was replaced with 0.1% n-Undecyl-β-D-Maltopyranoside (beta-UDM). In order to check non-specific binding of β-DDM micelles to the AF647 labeled C1C2-NP, the concentration of beta-DDM was varied from 0.03-900 μM and the concentration of the AF647-labeled C1C2-NP was fixed at 1 μM. A similar experiment was performed wherein the concentration of beta-UDM was varied from 0.3-10,000 μM and the concentration of AF647-labeled control NP was fixed at 1 μM. The non-specific binding of human claudins 4 and 9 to the NP was examined by varying the concentrations of human claudins 4 and 9 from 0.7-20,100 nM and 0.8-31,100 nM, respectively. The human claudin sub-dilutions were mixed with the NPs or peptides and loaded in standard monolith NT.115 capillary tubes for measurement. All experiments were conducted at 23° C. using the nano-red channel of the Monolith instrument and the data were analyzed by using either Monolith analysis software or Graph Pad Prism, version 9 (Graph Pad Software, San Diego, California).
substance,measurement,setting,value
C1C2-NP: PEG diacid coated ultrasmall Gd NP conjugated with C1C2 peptide SSVSQSTGQIQSKVDSLLNLNSTQATR (SEQ ID NO: 6); claudin-1 targeted (Ac-SSVSQSTGQIQSKVDSLLNLNSTQATR-NH2; also: conjugated to PEG diacid coated ultrasmall Gd nanoparticle),Binding to human claudin 3 (in words),listed as AF647-C1C2-NP,does not show any binding
same,Binding to human claudin 3 (in words),listed as C1C2-NPs,undefined 95% confidence intervals
